The values below come from PMC5824709, “Metabolite profiling with HPLC-ICP-MS as a tool for in vivo characterization of imaging probes” (EJNMMI Radiopharmacy and Chemistry, 2018).

Data set [1] in a line: Size exclusion chromatography HPLC-ICP-MS of plasma samples to detect transchelation to plasma proteins. Format: in vivo. The conditions noted are these: rats, i.v., SEC HPLC-ICP-MS (BioSep-SEC-s2000, TBS), compared with pure Ga-/In-transferrin standard. As for the experimental part:
Ga and In transferrin complexes were synthesized using a 1.3 equivalent excess of protein and purification with Zeba™ Spin Desalting Columns (ThermoFisher Scientific), to remove unchelated Ga and In. TBS buffer was prepared by mixing 150 mM NaCl, 50 mM Tris and 5 mM NaHCO3 followed by stirring over chelex overnight and subsequent filtration.
An Agilent 8800 ICP-MSMS interfaced to an Agilent 1260 HPLC was used. 20% option gas (20% O2, 80% Ar) was added to pyrolyze any carbon deposits on the cones from the HPLC mobile phase while 40% O2 was used as cell gas when conducting reverse phase analysis. HPLC method 3: C18 column (Kromasil 5 μm C18, 250 × 4.60 mm), 0.8 mL/min, mobile phase A (water, 10 mM NaOAc), mobile phase B (90% acetonitrile, 10% 10 mM NaOAc), gradient: min. 0–2: 5% B; min 12: 50% B; min 13: 95% B; min 15: 95% B; min 16: 5% B; min 18: 5% B. HPLC method 4: size exclusion chromatography (SEC) Column (Phenomenex BioSep-SEC-s2000, 300 × 7.80 mm), 1 mL/min, mobile phase TBS, isocratic, 18 min. […] Ga(DOTA) and In(DOTA) were used to determine the limit of detection and limit of quantification, and to generate a calibration curve for quantification using RP-separation. […] 100 μL of each standard was analyzed by direct injection onto the reverse phase HPLC-ICP-MS (HPLC method 3), and the integrals of each metal-FBP peak were recorded. An aliquot of each calibration standard was then digested 1:1 with nitric acid and incubated overnight at 37 °C before being analyzed for its metal concentration by ICP-MS. These metal concentrations were plotted against the previously recorded integrals to generate the metal-FBP calibration plots (Additional file 1: Figure S1). Limits of detection and quantification were calculated using an established method (MacDougall & Crummett [1980]).
Ga-FBP17, Ga-FBP18, In-FBP15, In-FBP19 (50–150 nmol, with concentrations determined by direct inject ICP-MS) in 0.6 mL sterile PBS were injected either individually or as a mixture of Ga-FBP17/In-FBP15 or Ga-FBP18/In-FBP19 into anesthetized rats via cannulated femoral vein, followed by saline flush. […]

A short description of data set [2]: Plasma pharmacokinetics and metabolite profiling by reverse phase HPLC-ICP-MS after i.v. injection. It is filed as in vivo. To be noted: rats; for metabolic behavior in plasma over time (degradation of intact probe): i.v., plasma 5-60 min post injection, C18 HPLC-ICP-MS chromatograms; for relative amount of metabolites with time post injection: plasma, C18 HPLC-ICP-MS, Ga-FBP18: metabolite group C (shortest retention times), In-FBP19: all metabolites. The protocol: An Agilent 8800 ICP-MSMS interfaced to an Agilent 1260 HPLC was used. 20% option gas (20% O2, 80% Ar) was added to pyrolyze any carbon deposits on the cones from the HPLC mobile phase while 40% O2 was used as cell gas when conducting reverse phase analysis. HPLC method 3: C18 column (Kromasil 5 μm C18, 250 × 4.60 mm), 0.8 mL/min, mobile phase A (water, 10 mM NaOAc), mobile phase B (90% acetonitrile, 10% 10 mM NaOAc), gradient: min. 0–2: 5% B; min 12: 50% B; min 13: 95% B; min 15: 95% B; min 16: 5% B; min 18: 5% B. HPLC method 4: size exclusion chromatography (SEC) Column (Phenomenex BioSep-SEC-s2000, 300 × 7.80 mm), 1 mL/min, mobile phase TBS, isocratic, 18 min. The SEC column was standardized using a protein marker kit (Sigma-Aldrich, P/N: MWGF1000). Ga(DOTA) and In(DOTA) were used to determine the limit of detection and limit of quantification, and to generate a calibration curve for quantification using RP-separation. Calibration standards of Ga(DOTA) and In(DOTA) ranging from 10 nM to 1 μM were prepared by serial dilution from stocks. 100 μL of each standard was analyzed by direct injection onto the reverse phase HPLC-ICP-MS (HPLC method 3), and the integrals of each metal-FBP peak were recorded. An aliquot of each calibration standard was then digested 1:1 with nitric acid and incubated overnight at 37 °C before being analyzed for its metal concentration by ICP-MS. These metal concentrations were plotted against the previously recorded integrals to generate the metal-FBP calibration plots (Additional file 1: Figure S1). Limits of detection and quantification were calculated using an established method (MacDougall & Crummett [1980]).
Ga-FBP17, Ga-FBP18, In-FBP15, In-FBP19 (50–150 nmol, with concentrations determined by direct inject ICP-MS) in 0.6 mL sterile PBS were injected either individually or as a mixture of Ga-FBP17/In-FBP15 or Ga-FBP18/In-FBP19 into anesthetized rats via cannulated femoral vein, followed by saline flush. Blood (0.2 mL) was drawn at time points 5, 10, 15, 30 and 60 min post injection via cannulated femoral artery into heparin-containing tubes. Tubes were centrifuged at 2000 g for 10 min to separate the plasma. Plasma was diluted 1:1 with chelex-treated TBS and 100 μL of sample was injected onto the HPLC-ICP-MSMS, scanning for Ga and In at m/z = 69 and 115, respectively. Peaks were integrated and measured against a standard calibration curve.

Where a SMILES comes first, the peptide text is derived from it. Bridges are numbered along the chain shown (N, C = ends). [ ]: non-standard residue; d: D form. The star is where a group is joined. DOTA(p-xylylenediamine) = O=C(O)CN1CCN(CC(=O)O)CCN(CC(=O)NCc2ccc(CN*)cc2)CCN(CC(=O)O)CC1; DOTA = O=C(O)CN1CCN(CC(=O)O)CCN(CC(=O)*)CCN(CC(=O)O)CC1; Tyr(3-Cl) = N[C@@H](Cc1ccc(O)c(Cl)c1)C(=O)O; Hyp = O=C(O)[C@@H]1C[C@@H](O)CN1

As a reminder, the half-life is the time needed for the level to fall by half in the phase considered. Consider `CC[C@H](C)[C@H](NC(=O)[C@H](Cc1c[nH]cn1)NC(=O)[C@@H]1CSSC[C@H](NC(=O)[C@H](Cc2c[nH]cn2)NC(=O)[C@H](Cc2ccccc2)NC(=O)CN2CCN(CC(=O)O)CCN(CC(=O)O)CCN(CC(=O)O)CC2)C(=O)N2C[C@H](O)C[C@H]2C(=O)N[C@@H](Cc2ccc(O)c(Cl)c2)C(=O)N[C@@H](CC(=O)O)C(=O)N[C@@H](CC(C)C)C(=O)N1)C(=O)N[C@@H](CC(C)C)C(=O)NCc1ccc(CNC(=O)CN2CCN(CC(=O)O)CCN(CC(=O)O)CCN(CC(=O)O)CC2)cc1` [Ga-FBP17] ({DOTA}-FHC[Hyp][Tyr(3-Cl)]DLCHIL-{DOTA(p-xylylenediamine)}; disulfide 3-8), for which the “transchelation to transferrin / high molecular weight species in plasma” value in data set [1] is reported as “did not observe Ga-transferrin or other high molecular weight species”. For the same molecule, the half-life in data set [2] (rat, iv, i.v. via femoral vein, 50–150 nmol in PBS, plasma from blood drawn 5, 10, 15, 30, 60 min post injection, intact probe quantified by C18 HPLC-ICP-MS (m/z 69 Ga, 115 In), monoexponential clearance assumed, read-out: calculated half-life of the intact complex) was 9 min. In data set [2], the “metabolic behavior in plasma over time (degradation of intact probe)” value (from here on “metabolic behavior in plasma over time”) is “only minimal degradation over time”.

Turning to `CC[C@H](C)[C@H](NC(=O)[C@H](Cc1c[nH]c2ccccc12)NC(=O)[C@@H]1CSSC[C@H](NC(=O)[C@@H](CCC(=O)O)NC(=O)[C@H](Cc2c[nH]c3ccccc23)NC(=O)CN2CCN(CC(=O)O)CCN(CC(=O)O)CCN(CC(=O)O)CC2)C(=O)N2C[C@H](O)C[C@H]2C(=O)N[C@@H](Cc2ccc(O)c(Cl)c2)C(=O)NCC(=O)N[C@@H](CC(C)C)C(=O)N1)C(=O)N[C@@H](CCC(N)=O)C(=O)NCc1ccc(CNC(=O)CN2CCN(CC(=O)O)CCN(CC(=O)O)CCN(CC(=O)O)CC2)cc1` [Ga-FBP18] ({DOTA}-W[dE]C[Hyp][Tyr(3-Cl)]GLCWIQ-{DOTA(p-xylylenediamine)}; disulfide 3-8), the “transchelation to transferrin / high molecular weight species in plasma” value in data set [1] is “identified Ga-transferrin as a metabolite”. Besides, in data set [2], the “metabolic behavior in plasma over time” value is “rapid metabolism” and the “relative amount of metabolites with time post injection” value is “increased with time post injection”.

As for `CC[C@H](C)[C@H](NC(=O)[C@H](Cc1c[nH]cn1)NC(=O)[C@@H]1CSSC[C@H](NC(=O)[C@H](Cc2c[nH]cn2)NC(=O)[C@H](Cc2ccccc2)NC(=O)CN2CCN(CC(=O)O)CCN(CC(=O)O)CCN(CC(=O)O)CC2)C(=O)N2C[C@H](O)C[C@H]2C(=O)N[C@@H](Cc2ccc(O)c(Cl)c2)C(=O)N[C@@H](CC(=O)O)C(=O)N[C@@H](CC(C)C)C(=O)N1)C(=O)N[C@@H](CC(C)C)C(=O)NCc1ccc(CNC(=O)CN2CCN(CC(=O)O)CCN(CC(=O)O)CCN(CC(=O)O)CC2)cc1` [In-FBP15] ({DOTA}-FHC[Hyp][Tyr(3-Cl)]DLCHIL-{DOTA(p-xylylenediamine)}; disulfide 3-8), the “metabolic behavior in plasma over time” value in data set [2] was “only minimal degradation over time”.

As for `CC[C@H](C)[C@H](NC(=O)[C@H](Cc1c[nH]c2ccccc12)NC(=O)[C@@H]1CSSC[C@H](NC(=O)[C@@H](CCC(=O)O)NC(=O)[C@H](Cc2c[nH]c3ccccc23)NC(=O)CN2CCN(CC(=O)O)CCN(CC(=O)O)CCN(CC(=O)O)CC2)C(=O)N2C[C@H](O)C[C@H]2C(=O)N[C@@H](Cc2ccc(O)c(Cl)c2)C(=O)NCC(=O)N[C@@H](CC(C)C)C(=O)N1)C(=O)N[C@@H](CCC(N)=O)C(=O)NCc1ccc(CNC(=O)CN2CCN(CC(=O)O)CCN(CC(=O)O)CCN(CC(=O)O)CC2)cc1` [In-FBP19] ({DOTA}-W[dE]C[Hyp][Tyr(3-Cl)]GLCWIQ-{DOTA(p-xylylenediamine)}; disulfide 3-8), the “transchelation to transferrin / high molecular weight species in plasma” value in data set [1] was “did not identify In-transferrin in the plasma samples”. In addition, in data set [2], the “metabolic behavior in plasma over time” value was “rapid metabolism” and the “relative amount of metabolites with time post injection” value was “roughly constant with time”.
